Measurements reported in patent US8026218.
Bridge positions count the residues as written; N and C are the ends. Square brackets hold non-standard residues; d marks the D form. Primed or numbered codes have the meaning given here. Ends that are not written are not given here. * marks the point of attachment. NH(3,5-(CF3)2-benzyl) = FC(F)(F)c1cc(CN*)cc(C(F)(F)F)c1; O‑Bzl(CF3)2(3) = C-terminal O-Bzl(CF3)2 ester; NH‑Bn(CF3)2 = C-terminal Bn(CF3)2 amide; dPen = CC(C)(S)[C@@H](N)C(=O)O; Pen = CC(C)(S)[C@H](N)C(=O)O; Nle = CCCC[C@H](N)C(=O)O; Abu = CC[C@H](N)C(=O)O; GABA = NCCCC(=O)O; βAla = NCCC(=O)O

What was measured:
[1] = molecular target: human δ opioid receptor (human) (UniProt P41143); experiment: cell-based or functional assay
[2] = molecular target: rat µ opioid receptor (rat) (UniProt P33535); experiment: cell-based or functional assay
[3] = molecular target: δ opioid receptor of the mouse isolated vas deferens (mouse), P32300; experiment: cell-based or functional assay
[4] = molecular target: human NK1 receptor (human) (UniProt P25103); experiment: radioligand competition vs [3H]substance P, membranes of hNK1 CHO cells
[5] = molecular target: human δ opioid receptor (human) (UniProt P41143); experiment: radioligand competition vs [3H]DPDPE, membranes of hDOR cells
[6] = molecular target: rat µ opioid receptor (rat) (UniProt P33535); experiment: radioligand competition vs [3H]DAMGO, membranes of rMOR cells
rat NK1 receptor (rat) [7] = molecular target: rat NK1 receptor (rat) (UniProt P14600); experiment: radioligand competition vs [3H]substance P, membranes of rNK1 CHO cells
[8] = molecular target: δ opioid receptor of the mouse isolated vas deferens (mouse) (UniProt P32300); experiment: cell-based or functional assay
[9] = molecular target: µ opioid receptor of the guinea pig isolated ileum (guinea pig) (UniProt P97266); experiment: cell-based or functional assay
[10] = molecular target: guinea pig NK1 receptor (guinea pig) (UniProt P30547); experiment: cell-based or functional assay
[11] = molecular target: human NK1 receptor (human) (UniProt P25103); experiment: competition vs [3H]Substance P, hNK1 CHO cell membranes
rat NK1 receptor (rat) [12] = molecular target: rat NK1 receptor (rat) (UniProt P14600); experiment: competition vs [3H]Substance P, rNK1 CHO cell membranes
[13] = molecular target: human δ opioid receptor (human) (UniProt P41143); experiment: competition vs [3H]DPDPE, hDOR cell membranes
[14] = molecular target: rat µ opioid receptor (rat) (UniProt P33535); experiment: competition vs [3H]DAMGO, rMOR cell membranes

Sequence of µ opioid receptor of the guinea pig isolated ileum (guinea pig) (P97266 whole entry): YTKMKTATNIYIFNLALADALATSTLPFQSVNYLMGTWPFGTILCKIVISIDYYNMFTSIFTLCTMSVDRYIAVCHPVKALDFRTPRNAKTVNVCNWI
Sequence of guinea pig NK1 receptor (guinea pig) (P30547 whole entry): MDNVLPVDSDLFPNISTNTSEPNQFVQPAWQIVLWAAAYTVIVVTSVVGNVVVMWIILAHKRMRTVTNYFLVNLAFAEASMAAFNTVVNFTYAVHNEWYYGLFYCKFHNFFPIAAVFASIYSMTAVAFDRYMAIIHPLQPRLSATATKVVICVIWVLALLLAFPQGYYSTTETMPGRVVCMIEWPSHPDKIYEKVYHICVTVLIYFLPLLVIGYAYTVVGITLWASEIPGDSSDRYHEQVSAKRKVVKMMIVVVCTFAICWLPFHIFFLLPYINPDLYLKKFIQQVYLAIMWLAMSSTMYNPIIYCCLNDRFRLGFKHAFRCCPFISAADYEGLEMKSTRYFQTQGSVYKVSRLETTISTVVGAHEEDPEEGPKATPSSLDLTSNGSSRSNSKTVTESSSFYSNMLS
Sequence of human NK1 receptor (human) (P25103 whole entry): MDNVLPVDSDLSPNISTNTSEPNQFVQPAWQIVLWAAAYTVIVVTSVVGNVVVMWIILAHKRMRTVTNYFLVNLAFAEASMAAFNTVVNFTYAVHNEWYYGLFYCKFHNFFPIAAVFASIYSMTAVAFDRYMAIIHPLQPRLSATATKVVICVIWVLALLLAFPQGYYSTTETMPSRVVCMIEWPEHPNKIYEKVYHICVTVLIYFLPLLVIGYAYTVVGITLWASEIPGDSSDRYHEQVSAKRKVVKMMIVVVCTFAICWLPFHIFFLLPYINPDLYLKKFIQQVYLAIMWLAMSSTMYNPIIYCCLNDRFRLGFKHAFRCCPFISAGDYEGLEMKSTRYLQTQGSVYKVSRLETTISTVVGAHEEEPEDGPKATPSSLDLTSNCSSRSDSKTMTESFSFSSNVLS
Sequence of rat µ opioid receptor (rat) (P33535 whole entry): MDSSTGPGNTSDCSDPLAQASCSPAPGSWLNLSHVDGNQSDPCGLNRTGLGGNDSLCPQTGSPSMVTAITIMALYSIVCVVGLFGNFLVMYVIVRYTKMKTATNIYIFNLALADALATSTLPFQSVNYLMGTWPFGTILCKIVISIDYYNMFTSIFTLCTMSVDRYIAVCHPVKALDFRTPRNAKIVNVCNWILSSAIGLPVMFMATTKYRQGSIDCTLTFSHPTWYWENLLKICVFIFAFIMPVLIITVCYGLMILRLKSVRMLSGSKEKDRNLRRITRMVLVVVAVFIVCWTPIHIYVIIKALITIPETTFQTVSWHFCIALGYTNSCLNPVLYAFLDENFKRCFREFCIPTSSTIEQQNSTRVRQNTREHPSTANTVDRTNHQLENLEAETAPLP
Sequence of human δ opioid receptor (human) (P41143 whole entry, stated change not applied): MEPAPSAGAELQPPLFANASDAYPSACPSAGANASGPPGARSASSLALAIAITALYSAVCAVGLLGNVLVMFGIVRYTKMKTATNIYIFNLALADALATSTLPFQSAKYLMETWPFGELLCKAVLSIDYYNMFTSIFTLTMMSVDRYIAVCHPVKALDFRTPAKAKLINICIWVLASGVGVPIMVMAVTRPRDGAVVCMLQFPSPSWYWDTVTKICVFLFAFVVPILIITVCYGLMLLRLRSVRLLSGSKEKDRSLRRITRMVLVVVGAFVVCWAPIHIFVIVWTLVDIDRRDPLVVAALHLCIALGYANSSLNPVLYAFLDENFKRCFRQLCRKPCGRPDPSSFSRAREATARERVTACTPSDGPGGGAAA
Sequence of δ opioid receptor of the mouse isolated vas deferens (mouse) (P32300 whole entry, stated change not applied): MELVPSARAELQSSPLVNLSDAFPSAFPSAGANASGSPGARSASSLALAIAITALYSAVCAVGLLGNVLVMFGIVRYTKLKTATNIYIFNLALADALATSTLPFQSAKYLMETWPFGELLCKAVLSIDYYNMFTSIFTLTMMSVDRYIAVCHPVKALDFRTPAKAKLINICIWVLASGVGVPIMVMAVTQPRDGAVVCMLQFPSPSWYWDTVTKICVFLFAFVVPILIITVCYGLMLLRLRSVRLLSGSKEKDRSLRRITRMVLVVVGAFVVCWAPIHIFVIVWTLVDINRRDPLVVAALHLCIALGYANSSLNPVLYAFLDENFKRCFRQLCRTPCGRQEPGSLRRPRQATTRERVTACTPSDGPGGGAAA
Sequence of rat NK1 receptor (rat) (P14600 whole entry): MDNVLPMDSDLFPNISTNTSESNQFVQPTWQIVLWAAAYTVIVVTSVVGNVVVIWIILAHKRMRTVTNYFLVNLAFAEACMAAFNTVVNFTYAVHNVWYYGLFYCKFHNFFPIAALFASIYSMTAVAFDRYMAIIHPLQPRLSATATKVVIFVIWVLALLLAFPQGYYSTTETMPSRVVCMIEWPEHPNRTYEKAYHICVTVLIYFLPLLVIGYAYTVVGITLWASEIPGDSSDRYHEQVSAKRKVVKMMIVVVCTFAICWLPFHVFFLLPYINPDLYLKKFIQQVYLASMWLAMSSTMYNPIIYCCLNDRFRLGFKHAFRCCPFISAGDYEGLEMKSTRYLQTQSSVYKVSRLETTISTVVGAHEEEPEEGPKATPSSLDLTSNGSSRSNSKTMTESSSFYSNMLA
Sequence of δ opioid receptor of the mouse isolated vas deferens (mouse), P32300 (P32300 whole entry, stated change not applied): as the sequence (P32300 whole entry, stated change not applied) above

B1: Tyr[DCysGlyPheNleProDCys]TrpNHBn(CF3)2 (TY038) (peptide)
peptide: Y[dC]GF[Nle]P[dC]W-{NH(3,5-(CF3)2-benzyl)}
modifications: disulfide 2-7
Binder B1 has a GTP binding hDOR EC50 [1] of 14 nM, a GTP binding hDOR Emax [1] of 87% and a GTP binding rMOR EC50 [2] of 21.7 nM. The GTP binding rMOR Emax [2] was 11%, the MVD opioid(delta) agonist IC50 [3] was 18.9 nM and the Ki [4] was 0.24 nM. The Ki [5] was 55.5 nM, the Ki [6] was 156 nM and the Ki (rat NK1 receptor (rat) [7]) was 7.11 nM.

B2: Tyr-DAla-Gly-Phe-D-Ala-Trp-O-Bzl(CF3)2 (NP40) (peptide)
peptide: Y[dA]GF[dA]W-{O‑Bzl(CF3)2(3)}
B2 was tested, and the MVD δ-agonist IC50 [8] was 58 nM, the GPI/LMMP µ-agonist IC50 [9] was 528 nM and the GPI/LMMP SP antagonist Ke [10] was 608 nM.

B3: Tyr-DAla-Gly-Phe-Gly-Trp-O-Bzl(CF3)2 (NP30) (peptide)
peptide: Y[dA]GFGW-{O‑Bzl(CF3)2(3)}
For B3, the MVD δ-agonist IC50 [8] was 20.9 nM, the GPI/LMMP µ-agonist IC50 [9] was 25.7 nM and the GPI/LMMP SP antagonist Ke [10] was 58.9 nM.

B4: Tyr-DAla-Gly-Phe-Ala-Trp-O-Bzl(CF3)2 (NP31) (peptide)
peptide: Y[dA]GFAW-{O‑Bzl(CF3)2(3)}
For B4, the MVD δ-agonist IC50 [8] was 6.4 nM, the GPI/LMMP µ-agonist IC50 [9] was 401 nM and the GPI/LMMP SP antagonist Ke [10] was 18.6 nM.

B5: Tyr-DAla-Gly-Phe-γ-Abu-Trp-O-Bzl(CF3)2 (NP34) (peptide)
peptide: Y[dA]GF[GABA]W-{O‑Bzl(CF3)2(3)}
For B5, the MVD δ-agonist IC50 [8] was 67.9 nM, the GPI/LMMP µ-agonist IC50 [9] was 200 nM and the GPI/LMMP SP antagonist Ke [10] was 0.96 nM.

B6: Tyr-DAla-Gly-Phe-β-Ala-Trp-O-Bzl(CF3)2 (NP32) (peptide)
peptide: Y[dA]GF[βAla]W-{O‑Bzl(CF3)2(3)}
For B6, the MVD δ-agonist IC50 [8] was 12.6 nM, the GPI/LMMP µ-agonist IC50 [9] was 435 nM and the GPI/LMMP SP antagonist Ke [10] was 250 nM.

B7: Tyr[DPenGlyPheNleProDPen]TrpNHBn(CF3)2 (peptide)
peptide: Y[dPen]GF[Nle]P[dPen]W-{NH(3,5-(CF3)2-benzyl)}
modifications: disulfide 2-7
B7 gave a Ki [11] of 1.9 nM and a Ki (rat NK1 receptor (rat) [12]) of 26 nM.

B8: Tyr[DPenGlyPheNleProPen]TrpNHBn(CF3)2 (peptide)
peptide: Y[dPen]GF[Nle]P[Pen]W-{NH(3,5-(CF3)2-benzyl)}
modifications: disulfide 2-7
Binder B8 has a Ki [11] of 59 nM, a Ki (rat NK1 receptor (rat) [12]) of 163 nM and a GTP binding EC50 [2] of 2910 nM. For the same binder, the GTP binding Emax [2] was 15%, the Ki [13] was 152 nM and the Ki [14] was 1970 nM.

B9: Tyr[DPenGlyPheNleProDPen]TrpNHBn(CF3)2 (TY048) (peptide)
peptide: Y[dPen]GF[Nle]P[dPen]W-{NH‑Bn(CF3)2}
modifications: disulfide 2-7
For B9, the GTP binding rMOR EC50 [2] was 135 nM, the GTP binding rMOR Emax [2] was 29% and the Ki [4] was 1.9 nM. The Ki [6] was 998 nM and the Ki (rat NK1 receptor (rat) [7]) was 26 nM.

B10: Tyr-DAla-Gly-Phe-α-Abu-Trp-O-Bzl(CF3)2 (NP33) (peptide)
peptide: Y[dA]GF[Abu]W-{O‑Bzl(CF3)2(3)}
B10 gave an MVD δ-agonist IC50 [8] of 12.4 nM, a GPI/LMMP µ-agonist IC50 [9] of 600 nM and a GPI/LMMP SP antagonist Ke [10] of 5.6 nM.

B11: Tyr[DPenGlyPheNleProPen]TrpNHBn(CF3)2 (TY047) (peptide)
peptide: Y[dPen]GF[Nle]P[Pen]W-{NH‑Bn(CF3)2}
modifications: disulfide 2-7
In the case of B11, the GTP binding rMOR EC50 [2] is reported as 2910 nM, the GTP binding rMOR Emax [2] is reported as 15% and the Ki [4] is reported as 59 nM. For the same binder, the Ki [5] was 152 nM, the Ki [6] was 1970 nM and the Ki (rat NK1 receptor (rat) [7]) was 163 nM.
